Test results reported in the supplement of paper PMC9116672.
± gives the standard deviation of the averaged measurements or the uncertainty stated by the source.

How the values were obtained:
[1] = duplex formation free energy ΔG50 (Van't Hoff fit of HRM Tm); higher = less stable duplex; settings: temperature for dG: 50 °C, NaCl: 500 mM (unadjusted)
Method in brief: (§1)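 DNA duplexes with phosphodiester or phosphorothioate strands (the latter mixed Rp/Sp) were annealed 1:1 and melted at 1–20 μM, with four replicate samples. Melting was in 1× NNE buffer (500 mM NaCl, pH 7.0) with 1× EvaGreen on a LightCycler96 (37 to 97°C, 0.1°C/s). Enthalpy and entropy come from a linear Van't Hoff regression of 1/Tm (Tm: peak of -dF/dT) against ln(CT/4), and free energy is extrapolated to 50°C. Values are not salt-adjusted, and errors are fit standard deviations.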

[2] = duplex formation entropy ΔS (Van't Hoff fit of HRM Tm); higher = smaller entropy loss on duplex formation; settings: temperature for dG: 50 °C, NaCl: 500 mM (unadjusted)
Method in brief: as §1

[3] = duplex formation enthalpy ΔH (Van't Hoff fit of HRM Tm); higher = less exothermic duplex formation; settings: temperature for dG: 50 °C, NaCl: 500 mM (unadjusted)
Method in brief: as §1

[4] = duplex melting temperature (HRM, EvaGreen); higher = more stable duplex
Method in brief: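 Complementary DNA strands, either phosphodiester or phosphorothioate (Rp/Sp mixtures), were annealed 1:1 at 25 μM and diluted to 1–20 μM duplex in NNE buffer (500 mM NaCl, pH 7.0) containing 1× EvaGreen. Fluorescence at 470/514 nm was recorded on a LightCycler96 during heating from 37°C to 97°C at 0.1°C/s. The instrument software took the melting temperature as the peak of the negative dF/dT curve. Of four replicates, any without a clear peak were dropped and the remainder averaged.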

[5] = backbone: PO-PO (both strands phosphodiester DNA)
[6] = backbone: PS-PO (listed strand fully phosphorothioate, complement phosphodiester)
[7] = backbone: PS-PS (both strands fully phosphorothioate)
[8] = duplex concentration 1 µM, backbone: PO-PO (both strands phosphodiester DNA)
[9] = duplex concentration 1 µM, backbone: PS-PS (both strands fully phosphorothioate)
[10] = duplex concentration 2.5 µM, backbone: PO-PO (both strands phosphodiester DNA)
[11] = duplex concentration 2.5 µM, backbone: PS-PO (listed strand fully phosphorothioate, complement phosphodiester)
[12] = duplex concentration 2.5 µM, backbone: PS-PS (both strands fully phosphorothioate)
[13] = duplex concentration 5 µM, backbone: PO-PO (both strands phosphodiester DNA)
[14] = duplex concentration 5 µM, backbone: PS-PO (listed strand fully phosphorothioate, complement phosphodiester)
[15] = duplex concentration 5 µM, backbone: PS-PS (both strands fully phosphorothioate)
[16] = duplex concentration 7.5 µM, backbone: PO-PO (both strands phosphodiester DNA)
[17] = duplex concentration 7.5 µM, backbone: PS-PO (listed strand fully phosphorothioate, complement phosphodiester)
[18] = duplex concentration 7.5 µM, backbone: PS-PS (both strands fully phosphorothioate)
[19] = duplex concentration 10 µM, backbone: PO-PO (both strands phosphodiester DNA)
[20] = duplex concentration 10 µM, backbone: PS-PO (listed strand fully phosphorothioate, complement phosphodiester)
[21] = duplex concentration 10 µM, backbone: PS-PS (both strands fully phosphorothioate)
[22] = duplex concentration 15 µM, backbone: PO-PO (both strands phosphodiester DNA)
[23] = duplex concentration 15 µM, backbone: PS-PO (listed strand fully phosphorothioate, complement phosphodiester)
[24] = duplex concentration 15 µM, backbone: PS-PS (both strands fully phosphorothioate)
[25] = duplex concentration 20 µM, backbone: PO-PO (both strands phosphodiester DNA)
[26] = duplex concentration 20 µM, backbone: PS-PO (listed strand fully phosphorothioate, complement phosphodiester)
[27] = duplex concentration 20 µM, backbone: PS-PS (both strands fully phosphorothioate)
[28] = duplex concentration 1 µM, backbone: PS-PO (listed strand fully phosphorothioate, complement phosphodiester)

Sequence | duplex formation free energy ΔG50 [1, 5] | duplex formation free energy ΔG50 [1, 6] | duplex formation free energy ΔG50 [1, 7] | duplex formation entropy ΔS [2, 5] | duplex formation entropy ΔS [2, 6] | duplex formation entropy ΔS [2, 7] | duplex formation enthalpy ΔH [3, 5] | duplex formation enthalpy ΔH [3, 6] | duplex formation enthalpy ΔH [3, 7] | duplex melting temperature [4, 8] | duplex melting temperature [4, 9] | duplex melting temperature [4, 10] | duplex melting temperature [4, 11] | duplex melting temperature [4, 12] | duplex melting temperature [4, 13] | duplex melting temperature [4, 14] | duplex melting temperature [4, 15] | duplex melting temperature [4, 16] | duplex melting temperature [4, 17] | duplex melting temperature [4, 18] | duplex melting temperature [4, 19] | duplex melting temperature [4, 20] | duplex melting temperature [4, 21] | duplex melting temperature [4, 22] | duplex melting temperature [4, 23] | duplex melting temperature [4, 24] | duplex melting temperature [4, 25] | duplex melting temperature [4, 26] | duplex melting temperature [4, 27] | duplex melting temperature [4, 28]
TTAACCTGCAATGGATC | -11.83 ± 0.098 kcal/mol | -10.78 ± 0.066 kcal/mol | -8.858 ± 0.019 kcal/mol | -176 ± 5.8 cal/mol/K | -195 ± 6.1 cal/mol/K | -180 ± 5.8 cal/mol/K | -68.7 ± 2 kcal/mol | -73.7 ± 2 kcal/mol | -67.1 ± 1.9 kcal/mol | 60.19 ± 0.12 °C | 45.6 ± 0.62 °C | 63.2 ± 0.41 °C | 57.18 ± 0.21 °C | 48.62 ± 0.33 °C | 65.13 ± 0.59 °C | 59.09 ± 0.26 °C | 50.69 ± 0.37 °C | 66.57 ± 0.28 °C | 60.587 ± 0.046 °C | 51.91 ± 0.21 °C | 67.55 ± 0.2 °C | 61.376 ± 0.056 °C | 52.76 ± 0.14 °C | 68.98 ± 0.14 °C | 62.586 ± 0.015 °C | 54.03 ± 0.099 °C | 70.06 ± 0.25 °C | 63.32 ± 0.095 °C | 54.97 ± 0.2 °C | 
TTCGCGGTCTCCATTA | -12 ± 0.26 kcal/mol | -11.23 ± 0.091 kcal/mol | -10.18 ± 0.084 kcal/mol | -146 ± 12 cal/mol/K | -167 ± 6.1 cal/mol/K | -157 ± 8.9 cal/mol/K | -59.2 ± 4.2 kcal/mol | -65.2 ± 2.1 kcal/mol | -60.9 ± 3 kcal/mol |  | 51.49 ± 0.12 °C |  | 60.46 ± 0.26 °C | 55.69 ± 0.27 °C | 68.99 ± 0.35 °C | 62.978 ± 0.054 °C | 58.1 ± 0.25 °C | 70.45 ± 0.55 °C | 64.448 ± 0.036 °C | 59.57 ± 0.46 °C | 71.62 ± 0.38 °C | 65.33 ± 0.18 °C | 60.56 ± 0.28 °C | 73.14 ± 0.38 °C | 66.71 ± 0.2 °C | 61.77 ± 0.089 °C | 74.63 ± 0.43 °C | 67.75 ± 0.63 °C | 62.58 ± 0.18 °C | 
TTCTACATCCATCTTAATCCCA | -14.7 ± 0.46 kcal/mol | -12 ± 0.2 kcal/mol | -9.752 ± 0.037 kcal/mol | -262 ± 21 cal/mol/K | -243 ± 15 cal/mol/K | -212 ± 6.8 cal/mol/K | -99.4 ± 7.2 kcal/mol | -90.6 ± 5.1 kcal/mol | -78.1 ± 2.2 kcal/mol |  | 49.9 ± 0.91 °C | 69.29 ± 0.65 °C | 60.3 ± 0.71 °C | 52.2 ± 0.78 °C | 70.58 ± 0.52 °C | 61.7 ± 1 °C | 54.2 ± 0.62 °C | 71.5 ± 0.27 °C | 63 ± 0.72 °C | 55.53 ± 0.29 °C | 72.3 ± 0.098 °C | 63.81 ± 0.27 °C | 56.28 ± 0.17 °C | 73.48 ± 0.21 °C | 64.85 ± 0.098 °C | 57.3 ± 0.083 °C | 74.36 ± 0.2 °C | 65.55 ± 0.094 °C | 57.98 ± 0.21 °C | 59.7 °C
TTGAAAACCCATGTGC | -11.8 ± 0.082 kcal/mol | -10.62 ± 0.078 kcal/mol | -8.581 ± 0.024 kcal/mol | -177 ± 5 cal/mol/K | -180 ± 7.1 cal/mol/K | -189 ± 8.7 cal/mol/K | -69.1 ± 1.7 kcal/mol | -68.7 ± 2.4 kcal/mol | -69.7 ± 2.8 kcal/mol | 60.23 ± 0.095 °C | 44.39 ± 0.2 °C | 62.8 ± 0.81 °C | 56.79 ± 0.24 °C | 47.54 ± 0.18 °C | 64.91 ± 0.47 °C | 59.35 ± 0.12 °C | 49.47 ± 0.39 °C | 66.29 ± 0.13 °C | 60.57 ± 0.15 °C | 50.5 ± 0.34 °C | 67.33 ± 0.16 °C | 61.45 ± 0.1 °C | 51.45 ± 0.23 °C | 68.7 ± 0.13 °C | 62.67 ± 0.086 °C | 52.45 ± 0.36 °C | 69.66 ± 0.17 °C | 63.58 ± 0.29 °C | 53.33 ± 0.26 °C | 
TTGTAGTTGACGTTTGTGATTTAGTGAATT | -23.4 ± 0.65 kcal/mol | -16.9 ± 0.24 kcal/mol | -12.45 ± 0.081 kcal/mol | -503 ± 23 cal/mol/K | -414 ± 12 cal/mol/K | -335 ± 7.4 cal/mol/K | -186 ± 8.2 kcal/mol | -151 ± 4.2 kcal/mol | -121 ± 2.5 kcal/mol | 75.58 ± 0.12 °C | 57.2 ± 0.68 °C | 76.626 ± 0.046 °C | 67.48 ± 0.5 °C | 59 ± 0.58 °C | 77.623 ± 0.046 °C | 68.57 ± 0.46 °C | 60.27 ± 0.37 °C | 78.24 ± 0.12 °C | 69.28 ± 0.39 °C | 60.98 ± 0.26 °C | 78.646 ± 0.027 °C | 69.64 ± 0.24 °C | 61.54 ± 0.13 °C | 78.98 ± 0.12 °C | 70.23 ± 0.23 °C | 62.29 ± 0.073 °C | 79.7 °C | 70.83 ± 0.099 °C | 62.84 ± 0.14 °C | 66.16 ± 0.47 °C
TTTGGGTTAGTAAGAAGGCAGCAGTTGGGC | -26.6 ± 0.73 kcal/mol | -20.7 ± 0.54 kcal/mol | -15.88 ± 0.14 kcal/mol | -517 ± 22 cal/mol/K | -439 ± 21 cal/mol/K | -377 ± 7.9 cal/mol/K | -194 ± 7.9 kcal/mol | -163 ± 7.3 kcal/mol | -138 ± 2.7 kcal/mol | 80.77 ± 0.16 °C | 64.9 ± 0.6 °C | 81.98 ± 0.11 °C | 74.54 ± 0.53 °C | 66.58 ± 0.4 °C | 82.782 ± 0.065 °C | 75.49 ± 0.43 °C | 67.7 ± 0.32 °C | 83.39 ± 0.22 °C | 76.34 ± 0.31 °C | 68.34 ± 0.25 °C | 83.787 ± 0.08 °C | 76.74 ± 0.24 °C | 68.92 ± 0.12 °C | 84.24 ± 0.16 °C | 77.38 ± 0.2 °C | 69.54 ± 0.097 °C | 85 °C | 77.939 ± 0.056 °C | 70.01 ± 0.096 °C | 73.49 ± 0.58 °C
